Assay [1] has as its target T1, mouse CXCR7 (mouse, UniProt P56485 1-362).
T1 construct: whole, on cells; also called mouse CXCR7 receptors
The assay can be described thus: flow cytometry on MC38 and CT26 mouse cells. A general note: In flow cytometry, cells or beads pass a laser one at a time.

For assay [2], the target named is T2, CXCR7 (human (endogenous on a human cancer …, UniProt P25106 1-362)).
T2 construct: whole, on cells; also called ACKR3
Kind of assay: flow cytometry on MDA-MB-231 cells known to express CXCR4 and CXCR7.

In assay [3] the target is T3, CXCR4 (human (endogenous on a human cancer …, UniProt P61073 1-352)).
T3 construct: whole, on cells
The description is as above.

Assay [4] addresses VEGF-647 (UniProt P15692-4 27-191, biotinylated, pre-incubated with streptavidin-647). The assay can be described thus: cell-based or functional assay.

VEGF-647, sequence (P15692 other isoform, or with tags, fused parts or gaps limits assumed): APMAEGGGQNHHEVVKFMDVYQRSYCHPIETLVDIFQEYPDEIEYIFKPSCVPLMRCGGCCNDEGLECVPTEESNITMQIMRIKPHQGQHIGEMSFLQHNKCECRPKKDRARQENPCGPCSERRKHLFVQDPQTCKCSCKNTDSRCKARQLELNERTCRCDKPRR
T3 sequence (P61073 whole entry): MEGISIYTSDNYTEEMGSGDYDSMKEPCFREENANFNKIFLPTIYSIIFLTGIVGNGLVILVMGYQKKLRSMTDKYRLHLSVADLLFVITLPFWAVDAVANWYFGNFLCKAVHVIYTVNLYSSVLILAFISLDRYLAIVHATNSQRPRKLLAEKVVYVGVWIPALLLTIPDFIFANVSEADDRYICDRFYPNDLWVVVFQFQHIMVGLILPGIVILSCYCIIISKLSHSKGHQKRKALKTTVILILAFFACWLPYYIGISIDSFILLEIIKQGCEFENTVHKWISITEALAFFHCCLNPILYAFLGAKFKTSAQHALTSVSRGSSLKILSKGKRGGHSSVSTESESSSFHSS
T2 sequence (P25106 whole entry): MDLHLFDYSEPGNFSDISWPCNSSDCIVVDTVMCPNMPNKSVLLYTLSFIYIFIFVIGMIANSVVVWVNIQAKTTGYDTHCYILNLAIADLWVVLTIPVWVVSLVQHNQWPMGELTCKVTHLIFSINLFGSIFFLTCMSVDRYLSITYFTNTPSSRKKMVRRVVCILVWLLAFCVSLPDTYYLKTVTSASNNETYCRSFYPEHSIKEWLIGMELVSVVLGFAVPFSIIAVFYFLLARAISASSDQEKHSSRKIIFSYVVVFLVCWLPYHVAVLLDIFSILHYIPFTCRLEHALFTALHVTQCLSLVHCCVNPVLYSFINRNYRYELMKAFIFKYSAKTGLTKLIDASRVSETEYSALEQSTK
T1 sequence (P56485 whole entry): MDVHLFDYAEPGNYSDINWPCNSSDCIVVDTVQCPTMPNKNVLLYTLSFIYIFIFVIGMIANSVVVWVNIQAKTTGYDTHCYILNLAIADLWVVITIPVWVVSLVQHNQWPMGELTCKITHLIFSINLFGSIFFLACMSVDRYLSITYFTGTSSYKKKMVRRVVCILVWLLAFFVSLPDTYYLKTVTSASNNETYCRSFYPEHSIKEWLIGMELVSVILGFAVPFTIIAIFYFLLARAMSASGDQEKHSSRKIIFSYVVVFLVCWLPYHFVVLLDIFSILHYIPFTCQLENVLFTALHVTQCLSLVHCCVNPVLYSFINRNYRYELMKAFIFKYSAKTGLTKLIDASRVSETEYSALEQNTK

B1: CXCL12-Isotype (bispecific antibody, human IgG1, kappa, N297G)
chain: not shown
heavy: not shown
light: DIQMTQSPSSLSASVGDRVTITCRASQSVGSALAWYQQKPGKAPKLLIYSASSLYSGVPSRFSGSRSGTDFTLTISSLQPEDFATYYCQQSSYHHPITFGQGTKVEIKRTVAAPSVFIFPPSDSQLKSGTASVVCLLNNFYPREAKVQWKVDNALQSGNSQESVTEQDSKDSTYSLSSTLTLSKADYEKHKVYACEVTHQGLSSPVTKSF
notes: also called human CXCL12 isotype; isotype control of the CXCL12 bispecific
On to B1, for which the binding result in assay [1], in assay [2] and in assay [3] was “binds” in each case.

B2: CXCL12-Bevacizumab (bispecific antibody, human IgG1, N297G)
chain: not shown
heavy: not shown
light: not shown
On to B2, for which the “fold increase in cellular fluorescence (VEGF-647 uptake), flow cytometry, HeLa cells, 24 hr” value in assay [4] was determined as 32 fold.
